{"source": "the DeepSol protein solubility set"}
{"assay": "soluble on expression in E. coli; label from the status in PepcDB or PDB records"}
{"sequence": "MSLKFVGLVGSNYDQSYNRKLLEFIRRYFKLKFELEVLEIDEVPMFNQDEKWDESFQLRYLYNKITRADGVIIATPEHNHTISASLKSVLEWLSYEVHPFENKPVMIVGASYYDQGTSRAQVHLRKILDAPGVNAYTLPGNEFLLGKAKEAFDNNGNITNEGTVKFLETCLDNFVKYVGVVSKLKKPKPIESEDLDCGKPIATTITEVDPDDPEWVEKVAAFTGAVSGDTYVKLDHGILTVNQIDMFLKAMPFELTYADDNNQFLYYNNAHQDPDTMFAKRVPPQSGSRMSTVHGSLPPARMKNVEWVIGTLRNGNQEYVRTIVPGSPAGVINTHNYQAMYYPDGSYAGINEIVFNFQPWLDWYLKETGQRLVGGSGPFAPAAGGHGDADATSGASDSGDAGGHGGDADATAGASYEGHHHHHH", "soluble on expression in E. coli": "soluble"}
{"sequence": "MSLKGKIIEKVISKVKCKSDENYKIGLWVRDSTAGIGTLTFYSDKTKVFGALGHPITDVDTGDIINISRGSLIDSSIVSVNKGIRGNPGELRGIFINENKPIGIVKNNTICGLFGKGYEKFEGLQYNKPMEVAMRNEVKLGPAKILTTIDGSQPKMYAINIEKLFDQSSPNPKSMMIKVTDAELLDKTGGIVQGMSGSPIIQNNKVVGAVTHVLINKPDTGYGVYIEWMLKSAGILEGHHHHHH", "soluble on expression in E. coli": "soluble"}
{"sequence": "MSLKHVVVIGAVALGPKAACRFKRLDPEAHVTMIDQASRISYGGCGIPYYVSGEVSNIESLQATPYNVVRDPEFFRINKDVEALVETRAHAIDRAAHTVEIENLRTGERRTLKYDKLVLALGSKANRPPVEGMDLAGVTPVTNLDEAEFVQHAISAGEVSKAVIVGGGFIGLEMAVSLADMWGIDTTVVELADQIMPGFTSKSLSQMLRHDLEKNDVVVHTGEKVVRLEGENGKVARVITDKRTLDADLVILAAGVSPNTQLARDAGLELDPRGAIIVDTRMRTSDPDIFAGGDCVTIPNLVTGKPGFFPLGSMANRQGRVIGTNLADGDATFPGAVGSWAVKLFEGSASGAGLTVEGALREGYDAVNVHVEQFDRAHFYPEKTIMTLQLVVDRPTRRVLGIQGFSTLGDALTARINAVATMLASKPTVEDISNAEVVYSPPFASAMDIVNVAGNVADNVLAGRCRLVGTEEFVQLWEGRKDADICFVDTRLAANAVPLVEKYGDEWINIPEEELAARIDEIPRDKTVMLVCNTGLRSFESQLILDRLGLTNTKSVAGGMVAIHKIGGDEGHHHHHH", "soluble on expression in E. coli": "soluble"}
{"sequence": "MSLKIAEMDSNSAVMAAQNEVIRGEIKDRDGNVLAKSTKSGDLTQKREYPYGEIYSHPIGYASGIYGNAGLEGAYSKELTTYENVSLKAFLKSFNLKKDFKERNESDKKVGNSIVTTLDTDLQKAAYAALGANRGAVVALDPKTGAVLASVSKPGFNPNNMKETYEIANNPNGNPKDAILVDRALNGQYPPGSTFKVVTLTSALENLPGVTERTFNDTGSINVGTKDLPNENGNAYGNISLRKALSVSSNVIFGGILGEELGNKKLRETAEKYGFNKDLYLGNLKAYSGSFPDRKTVDKGLIAYDAIGQGEVLSSPIEMAMVAATVANNGVRMEPYIVSKVVDKDGDTVKEFSSTKKDTVMSKEQAQIINEYMQGVAKDRINDNWGYFKGMNVAAKTGTAQVPDGNSHAWLIAFAPADDPKIAVATIVENGGSGSKVAAPVTARVMQAYFNEGHHHHHH", "soluble on expression in E. coli": "soluble"}
{"sequence": "MSLKIAIVGSGNGAVTAAVDMVDKGHDVRLYCRNESISKFDVALEKGGFDFNNEGEEKFIEFTDISDDMEYVLDGADIVQVIIPSSFIEYYAKVMSKFVTNDHLIFFNIAASMGSIRFMNVLEDRHIDVHPHFAEANTLTYGTRVDFNNAKVDLSLNVRRVFFSTFDRSELNESYEKVSKIYDYLVKEESLLKTNLENGNPEVHPGPTLLNVGRIDYSEEFSLYKEGITKHTVRLLHAIEIERLNLGRKLGFELSTAKESRIQRGYLERKDEDEPLNRLFNTSPVFSQIPGPNHVENRYLTEDIAYGLVLWSSLGRVIDVPTPNIDAVIMIASTILERDFFEEGLTIEELGLDKLGLEEGHHHHHH", "soluble on expression in E. coli": "soluble"}
{"sequence": "MSLKIKSIKAITLSMPFSHGGKKVIFHGKEWKSLEFNLVKVETDKGIIGWGEAFGYTSWKAVKIAIEDMVAPLLVGKDMTNIPELILILQKSLHLFGRYGITMFAISGVEIALWDALGKEKNKPIHELLGKKNKDLFKAYSSLFRYGDPKIVEQKCKQSLDDGYQAIKLHEIENNCIEAGRKGTGNLPLMLDTNCPWTYEETLAKKNFLQEMRLTWLEEPIYPPEDYQTLAKLKKELDIPIACGENACTEFEFKSIIDQNAVTYVQPSVIKVGGIYEMFKIIQHAEKNNILVMPHTAYFGPGFLATLQLASLMKNETYIERFYLDIDQEFYPNFKRALNGKYKLPSGPGLGIDLDYKKLSKYEIEGHHHHHH", "soluble on expression in E. coli": "soluble"}
{"sequence": "MSLKINGEVTFKNNQVNYDENAITNLKLSGSDAKKENIKEVYMDLTNVGGPNKVLMDLNLLKDNSLSQSIGINDNVVAGEKEIPVTIVDKNGENHKAKGILTVKSKVGVGPLDFGFDESRIYFTVTDRFFNGDKNNDDPHGNNYDKKNPYTYHGGDLKGLTDKISYLKELGINTIWITPIVENTDFNQMFSQGKTQYSCHGYWAKDFEKLDPHLGTMDDLKTLIDTAHDSGIKIMVDVVLNHAGYGMKNKDNSGANNSPTEEDIAKFKGMFRENPGNDFITQESAGLPDFKTEDPEVREKLIEWQTGWIERSKTEKGNTIDYFRVDTVKHVDNTTWKAFKNKLTEINPSFKTIGEYFGADINNDGGQLQNGQMDALLDFGYKGKARDFVNGNIEGTSAYLDDRASKISNTNLMGQFLSSHDEDGFLKTVGDDLGKQMLAASLQITDKGIPVIYYGEELGMSGWNGFEQGDQNRYDMDFERLNDPKYKKVHDHYEKLLNIRKEYSKIFSKGNRKTIAGNNEEGYSVVLRSYNGKEITPMNLSENNEEKNITNGQNLFVVLNTKNEDKDISFKTNFKEGEKVKDLYSGNEYSIGKDGKVTVKVPSKEEGGTAILALKNREGHHHHHH", "soluble on expression in E. coli": "soluble"}
{"sequence": "MSLKITAARVIITCPGRNFVTLKIETDQGVYGIGDATLNGRELSVVAYLAGTRRALPHRHGPAPHRGHLAVCLSRAYWRAPARLTMRAIAAVDMALWDIKAKMAGMPLYQLLGGRSRDGIMVYGHANGSDIAETVEAVGHYIDMGYKAIRAQTGVPGIKDAYGVGRGKLYYEPADASLPSVTGWDTRKALNYVPKLFEELRKTYGFDHHLLHDGHHRYTPQEAANLGKMLEPYQLFWLEDCTPAENQEAFRLVRQHTVTPLAVGEIFNTIWDAKDLIQNQLIDYIRATVVGAGGLTHLRRIADLASLYQVRTGCHGATDLSPVTMGCALHFDTWVPNFGIQEYMRHTEETDAVFPHDYWFEKGELFVGETPGHGVDIDEELAAKYPYKPAYLPVARLEDGTMWNWEGHHHHHH", "soluble on expression in E. coli": "not soluble"}
{"sequence": "MSLKITNVQTQKVLVPLKKPLITAIHKTDSVGVVIVKIETDTGLVGENYVFALNKDRLDVFDAMIKSLTQFLIGNNPVYVEKIWQQMWQDCNPVGQKGIAISAISAIDTALWDLIGKQANMPLYQVFGACRDKVKTYASSGLWLSSNIDELIEEAHGFIDQGFRSMKLRLGKPDLKEDVERARALRASVGDDIEILTDANQSLTPRQAIALGRQLEDLNIAWLEEPVPAHDLAGHNRVLEAINIPVASGETDYTRFGMKDMLDHKAVDILMPDLQRIGGLSEFRKAAALASAYHIPVSSHIFTEQSLSIAGSADNCISVEHVDWFAPLYQEKIVINDGFIDMPMGAGIGFNFDYDFIDQNLIEGHHHHHH", "soluble on expression in E. coli": "soluble"}
{"sequence": "MSLKKVTLLVLDGFGVGAMADCEKVKPEDVNANTYKHLREAVDIHIPTLYQLGLGNIVDHLDTARAAYGRCDLAHHGADTFMGHQELMGSKPGVPQKRLMSEVGATIKKNLEKHGYDVRDPVEGAPVLLVNEAVVVGDNLESEVGNIINVVGDFRKLSFEQTIEVGKVVRSSVDTSRVIVYGNKEKTSIDLILSTIKERHPGQWGVDSPKANVYGEGYQVLHLGYGVDYEKQFAHLAEKQRLPVYRIGKTADVIQASGYHNPVVSTRKVLEVYQHEYSKSERDSVFLVNVQETDLAGHKEDCLWYKEVIEEVDRFLASFIDELDEEDLLIITADHGNDPTIGHSNHTREQTPVIIVGPQVRPISIGTRQTMADLAATMADYMGVAPPQYGTSFLHQILREGHHHHHH", "soluble on expression in E. coli": "soluble"}
{"sequence": "MSLKKYMGIIVDAISRRQFKGEITVENGKIIRVEEKEHDNEQYILPGLVDAHVHIESSMTVPSVFARMAVAKGTVAVVSDPHEIANVMGEEGIEFMLEDSKKSPLKVYFGVPSCVPATPFESSGAVLDINAVDRLLAKDDLHYLSEMMNFPGVILEFPDVMAKLESARKHGKVIDGHAPGLRGADLQKYIGAGISTDHECFEYEEAREKIELGMKILIREGSSARNFETLYPLIDEYPDHVMLCTDDSHPDTLIYEGHIDKLIRRGQEKGLDIYNLIRTAVFNPVEHYGLNVGLLREGDPADFIIVDNLKSFNILSTFIDGECVYENGKVLFPLEKVPAKNVFNRNKISIDDVKLVPPAGAIQEQTTEKGIKKIRVIVANDGELVTGQELIVPKIENGNLVSDPERDILKMVVLSRYSDDPVRIGFIKNIGLEKGAIASSIAHDSHNIIAVGATDEDIVETVNRLIKNKGGIAVGTAENLLDLPLEVAGLMSTLEGEEVASRYHLLNEEARKLGTSLESPFMTLAFMSLLVIPELKLGDKGLFDVTKFEFVDLFADEGHHHHHH", "soluble on expression in E. coli": "soluble"}
{"sequence": "MSLKLEIIAIGGYEEVGRNMTAVNVDGEIIILDMGIRLDRVLIHEDTDISKLHSLELIEKGIIPNDTVMKNIEGEVKAIVLSHGHLDHIGAVPKLAHRYNAPIIGTPYTIELVKREILSEKKFDVRNPLIVLNAGESIDLTPNITLEFIRITHSIPDSVLPVLHTPYGSIVYGNDFKFDNFPVVGERPDYRAIKKVGKNGVLCFISETTRINHEGKTPPEIIASGLLKNDLLAADNDKHGIIVTTFSSHIARIKSITDIAEKMGRTPVLLGRSMMRFCGIAQDIGLVKFPEDLRIYGDPSSIEMALKNIVKEGKEKYLIIATGHQGEEGAVLSRMATNKTPYKFEKYDCVVFSADPIPNPMNAAQRYMLESRLKLLGVRIFKGAHVSGHAAKEDHRDMLRWLNPEHIIPSHGDFNLTAEYTKLAEEEGYRLGEDVHLLRNGQCLSFEREGHHHHHH", "soluble on expression in E. coli": "soluble"}
{"sequence": "MSLKLLAIAPYEGLRQLFLRVAEEEGLSIKAEVGNLDEGVRLAKKAADESFDVIISRGGTATLIQQHLSIPVVEIEISGYDLLKNLLFLKEYPDKKAIVGFPQITNGVQLINELLDVSFSTVTIHSEGEAIHALKELKAQGFESVLGDVITVNEAERLGMNGFLLSSGEESVRKAFNQAKRVVKALGRDRLNYELPLSYLHEQERGLVLLDQNNDVCFVNEFAKKFQLMEFINDHSFMRQLRTPRETGAFSWSDGHSVWYIRYKAIGNQGLAIEFAQLNERVLNDHPKEGHHHHHH", "soluble on expression in E. coli": "soluble"}
{"sequence": "MSLKPFGLFAICVAFAGCGDTSWWSKNDDPELKSEQIRKLIPSRVHDRQSWANDINDIMEKLKIPKTKDNVCSVVAIVDQESNFVANPVVAGLGEKAVKEVSTRLNEKFEEKLGTTIGGQVAGYFEDVLKNQPTPDDNYMSQMRRVRTEKDLDVLYRQIFDYMASHYHVSALTGAAKLVGQDIAEKMNPITTLGSMQVNIVYAKENKRVKLQSVNNLRDDLYTQYGGLYYGIHRLMLYQTSYDKPIYRFADYNSGMYSSRNAALQSMLNKLGDEQLTEDGDLLLYNKDGSIQSTRSSSEKALIKIFTLNNVLLTPNQIRTDLKQEKSQSFEQTPTYIAITKLYQKQTGKEAPYAMMPQVIISGPKLSRDYNTNWYASRVNGRYQTCMQRAKRIKEGHHHHHH", "soluble on expression in E. coli": "soluble"}
